The values below come from US20100260668A1 (published 2010).

Experiment [1] concerns the target T1, DLL4 ECD/His tag (R&D 1506-D4-050) (UniProt Q9NR61 27-529).
T1 construct: extracellular domain; Bought antigen coated on the ELISA plate; not shown: His tag
The experiment in a line: direct bind ELISA, DLL4 on plate; DLL4 VD N-term.; HC Short, LC Short. (ELISA stands for enzyme-linked immunosorbent assay.)

A further experiment addresses T2, PlGF (UniProt P49763-2 21-149, limits assumed).
T2 construct: Bought antigen coated on the ELISA plate; also called Placental GF; placental growth factor
T2 sequence (looked up): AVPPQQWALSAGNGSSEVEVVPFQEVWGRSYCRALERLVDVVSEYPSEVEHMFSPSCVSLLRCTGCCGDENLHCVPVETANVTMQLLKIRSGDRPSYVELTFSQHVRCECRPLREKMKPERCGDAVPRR
Kind of experiment: direct bind ELISA, antigen on plate; N-terminal VD.

Another experiment deals with T3, VEGF (UniProt P15692 27-191, limits assumed).
T3 construct: Bought antigen coated on the ELISA plate; also called vascular endothelial growth factor
The experiment in a line: direct bind ELISA, antigen on plate; C-terminal VD.

The next experiment has as its target T4, DLL4 (human, UniProt Q9NR61 27-685).
T4 construct: whole, on cells; also called human DLL4
The experiment in a line: flow cytometry on 293G-human DLL4 cells; DLL4 VD C-terminal. (In flow cytometry, cells or beads pass a laser one at a time.)

The target of experiment [2] is T5, human DLL4 extracellular domain (human, UniProt Q9NR61 27-529, biotin label in the Notch-1 competition ELISA (sites not given)). Kind of experiment: cell-based or functional assay.
Experiment [3] deals with T6, VEGF (biotinylated VEGF; VEGF165) (UniProt P15692-4 27-191, biotinylated (sites not given)).
T6 construct: the method paragraph says only 'biotinylated VEGF'
Kind of experiment: competition ELISA: DVD-Ig pre-incubated with 2 nM biotinylated VEGF, then on coated VEGFR1 ECD-Fc (competitor VEGFR1-Fc).

For experiment [4], the target named is T5, human DLL4 extracellular domain. Kind of experiment: competition ELISA: 14 nM biotin-labelled human DLL4 ECD pre-mixed with DVD-Ig, then on coated human Notch-1 (competitor Notch-1).
Experimental: Plates were then washed once with wash buffer (PBS, 0.05% Tween 20) and blocked with 200 μl/well blocking buffer (D-PBS, 1% BSA, 1 mM CaCl₂, 0.05% Tween 20) for 1 hour at 25° C.
Experiment [5] deals with T7, human DLL4 on 293G-human DLL4 cells (human, UniProt Q9NR61 27-685).
T7 construct: whole, on cells; no method paragraph describes this FACS assay
The experiment in a line: FACS: inhibition of Notch1 binding to 293G-human DLL4 cells (competitor Notch1).

T3 sequence (P15692 other isoform, or with tags, fused parts or gaps limits assumed): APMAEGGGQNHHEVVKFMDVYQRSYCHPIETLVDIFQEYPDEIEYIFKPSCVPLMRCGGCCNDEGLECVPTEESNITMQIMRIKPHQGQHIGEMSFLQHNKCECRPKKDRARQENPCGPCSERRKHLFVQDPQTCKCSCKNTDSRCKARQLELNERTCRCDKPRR
T6 sequence (P15692 other isoform, or with tags, fused parts or gaps limits assumed): as above
Experimental for PlGF: Enzyme Linked Immunosorbent Assays to screen for antibodies that bind a desired target antigen were performed as follows. […] Plates were washed four times with PBS containing 0.02% Tween 20. Plates were blocked by the addition of 300 μL/well blocking solution (non-fat dry milk powder, various retail suppliers, diluted to 2% in PBS) for ½ hour at room temperature. Plates were washed four times after blocking with PBS containing 0.02% Tween 20.
Plates were washed 4 times with PBS containing 0.02% Tween 20.

B1: DVD467 (bispecific antibody, human IgG1, kappa)
heavy: not shown
light: DIQMTQSPSSLSASVGDRVTITCRASQDVSTAVAWYQQKPGKAPKLLIYSASFLYSGVPSRFSGSGSGTDFTLTISSLQPEDFATTYYCQQSYTGTVTFGQGTKVEIKRTVAAPDIQMTQSPSSLSASVGDRVTITCRASQVIRRSLAWYQQKPGKAPKLLIYAASNLASGVPSRFSGSGSGTDFTLTISSLQPEDFATYYCQQSNTSPLTFGQGTKVEIKRTVAAPSVFIFPPSDEQLKSGTASVVCLLNNFYPREAKVQWKVDNALQSGNSQESVTEQDSKDSTYSLSSTLTLSKADYEKHKVYACEVTHQGLSSPVTKSFNRGEC
notes: DVD-Ig; outer AB015 (DLL4), inner AB071 (VEGF); HC short, LC short linker; also called DVD467H; DVD467L
What is called EC50 is the concentration at which the effect is half-maximal. A high value points to weaker potency. B1: a half-maximal response in experiment [1] (EC50) required 0.54 nM.

B2: DVD589 (bispecific antibody, human IgG1, kappa)
heavy: not shown
light: DIVLTQSPDSLAVSLGERVTMNCKSSQSLLNSGMRKSFLAWYQQKPGQSPKLLIYWASTRESGVPDRFTGSGSGTDFTLTISSVQAEDVAVYYCKQSYHLFTFGSGTKLEIKRTVAAPDIQMTQSPSSLSASVGDRVTITCRASQDVSTAVAWYQQKPGKAPKLLIYSASFLYSGVPSRFSGSGSGTDFTLTISSLQPEDFATYYCQQSYTTPPTFGQGTKVEIKRTVAAPSVFIFPPSDEQLKSGTASVVCLLNNFYPREAKVQWKVDNALQSGNSQESVTEQDSKDSTYSLSSTLTLSKADYEKHKVYACEVTHQGLSSPVTKSFNRGEC
notes: HC linker long, LC linker short; also called DVD589VH; DVD589VL
As to B2, the half-maximal effective concentration (EC50) was 0.12 nM in the experiment with PlGF and 1360 nM with VEGF.

B3: DVD599 (bispecific antibody, human IgG1, kappa)
heavy: not shown
light: DIVLTQSPDSLAVSLGERVTMNCKSSQSLLNSGMRKSFLAWYQQKPGQSPKLLIYWASTRESGVPDRFTGSGSGTDFTLTISSVQAEDVAVYYCKQSYHLFTFGSGTKLEIKRTVAAPSVFIFPPDIQMTQSPSSLSASVGDRVTITCRASQVIRRSLAWYQQKPGKAPKLLIYAASNLASGVPSRFSGSGSGTDFTLTISSLQPEDFATYYCQQSNTSPLTFGQGTKVEIKRTVAAPSVFIFPPSDEQLKSGTASVVCLLNNFYPREAKVQWKVDNALQSGNSQESVTEQDSKDSTYSLSSTLTLSKADYEKHKVYACEVTHQGLSSPVTKSFNRGEC
notes: DVD-Ig, N-terminal PlGF (AB047), C-terminal VEGF (AB071); HC linker short, LC linker long; also called DVD599VH; DVD599VL
Consider B3, for which the concentration for a half-maximal effect (EC50) was 0.23 nM with PlGF and 664 nM with VEGF.

B4: DVD474 (bispecific antibody, human IgG1, kappa)
heavy: not shown
light: DIQMTQSPSSLSASVGDRVTITCRASQVIRRSLAWYQQKPGKAPKLLIYAASNLASGVPSRFSGSGSGTDFTLTISSLQPEDFATYYCQQSNTSPLTFGQGTKVEIKRTVAAPSVFIFPPDIQMTQSPSSLSASVGDRVTITCRASQDVSTAVAWYQQKPGKAPKLLIYSASFLYSGVPSRFSGSGSGTDFTLTISSLQPEDFATTYYCQQSYTGTVTFGQGTKVEIKRTVAAPSVFIFPPSDEQLKSGTASVVCLLNNFYPREAKVQWKVDNALQSGNSQESVTEQDSKDSTYSLSSTLTLSKADYEKHKVYACEVTHQGLSSPVTKSFNRGEC
notes: DVD-Ig; outer AB071 (VEGF), inner AB015 (DLL4); also called VEGF and DLL4 DVD-Ig, HC linker long, LC linker long
Turning to B4, it took 2.19 nM to reach a half-maximal effect in the experiment with DLL4 (EC50).

B5: DVD486 (bispecific antibody, human IgG1, kappa)
heavy: not shown
light: B4 light
notes: DVD-Ig; outer AB071 (VEGF), inner AB015 (DLL4); also called VEGF and DLL4 DVD-Ig, HC linker short, LC linker long
B5: in the experiment with DLL4, the midpoint of the response, the EC50, lay at 2.09 nM.

B6: DVD597 (bispecific antibody, human IgG1, kappa)
heavy: not shown
light: DIVLTQSPDSLAVSLGERVTMNCKSSQSLLNSGMRKSFLAWYQQKPGQSPKLLIYWASTRESGVPDRFTGSGSGTDFTLTISSVQAEDVAVYYCKQSYHLFTFGSGTKLEIKRTVAAPSVFIFPPDIQMTQSPSSLSASVGDRVTITCRASQDVSTAVAWYQQKPGKAPKLLIYSASFLYSGVPSRFSGSGSGTDFTLTISSLQPEDFATYYCQQSYTTPPTFGQGTKVEIKRTVAAPSVFIFPPSDEQLKSGTASVVCLLNNFYPREAKVQWKVDNALQSGNSQESVTEQDSKDSTYSLSSTLTLSKADYEKHKVYACEVTHQGLSSPVTKSFNRGEC
notes: HC linker short, LC linker long; also called DVD597VH; DVD597VL
For B6, the EC50 with PlGF turned out to be 0.17 nM; with VEGF it was 31.1 nM.

B7: DVD470 (VEGF (seq. 1) N-terminal / DLL4 (seq. 1) C-terminal DVD-Ig, long HC linker, long LC linker) (bispecific antibody, human IgG1, kappa)
heavy: not shown
light: DIQMTQSPSSLSASVGDRVTITCSASQDISNYLNWYQQKPGKAPKVLIYFTSSLHSGVPSRFSGSGSGTDFTLTISSLQPEDFATYYCQQYSTVPWTFGQGTKVEIKRTVAAPSVFIFPPDIQMTQSPSSLSASVGDRVTITCRASQDVSTAVAWYQQKPGKAPKLLIYSASFLYSGVPSRFSGSGSGTDFTLTISSLQPEDFATTYYCQQSYTGTVTFGQGTKVEIKRTVAAPSVFIFPPSDEQLKSGTASVVCLLNNFYPREAKVQWKVDNALQSGNSQESVTEQDSKDSTYSLSSTLTLSKADYEKHKVYACEVTHQGLSSPVTKSFNRGEC
notes: also called DVD470H/DVD470L
Broadly, the IC50 is the concentration that inhibits the measured activity by half. Regarding B7, the “DVD-Ig Inhibition of sFlt1 (IC50, nM)” value in experiment [2] amounted to 1.02 nM. Further, the IC50 in experiment [3] worked out at 2.7 nM; in experiment [4], 2.82 nM; in experiment [5] it was 38.3 nM.

B8: DVD482 (VEGF (seq. 1) N-terminal / DLL4 (seq. 1) C-terminal DVD-Ig, short HC linker, long LC linker) (bispecific antibody, human IgG1, kappa)
heavy: not shown
light: B7 light
notes: also called DVD482H/DVD482L
For the molecule B8, in experiment [2], the “DVD-Ig Inhibition of sFlt1 (IC50, nM)” value was determined as 1.11 nM. For the same molecule, the figures for the IC50 in experiment [3], in experiment [4] and in experiment [5] were 1.7 nM, 2.65 nM and 16.3 nM, respectively.

B9: DVD482 (bispecific antibody, human IgG1, kappa)
heavy: not shown
light: B7 light
notes: DVD-Ig; also called VEGF and DLL4 DVD-Ig, HC linker short, LC linker long
Take B9: the EC50 with DLL4 turned out to be 3.25 nM.

B10: DVD471 (DLL4 (seq. 1) N-terminal / VEGF (AB070) C-terminal DVD-Ig, long HC linker, long LC linker) (bispecific antibody, human IgG1, kappa, L234A L235A)
heavy: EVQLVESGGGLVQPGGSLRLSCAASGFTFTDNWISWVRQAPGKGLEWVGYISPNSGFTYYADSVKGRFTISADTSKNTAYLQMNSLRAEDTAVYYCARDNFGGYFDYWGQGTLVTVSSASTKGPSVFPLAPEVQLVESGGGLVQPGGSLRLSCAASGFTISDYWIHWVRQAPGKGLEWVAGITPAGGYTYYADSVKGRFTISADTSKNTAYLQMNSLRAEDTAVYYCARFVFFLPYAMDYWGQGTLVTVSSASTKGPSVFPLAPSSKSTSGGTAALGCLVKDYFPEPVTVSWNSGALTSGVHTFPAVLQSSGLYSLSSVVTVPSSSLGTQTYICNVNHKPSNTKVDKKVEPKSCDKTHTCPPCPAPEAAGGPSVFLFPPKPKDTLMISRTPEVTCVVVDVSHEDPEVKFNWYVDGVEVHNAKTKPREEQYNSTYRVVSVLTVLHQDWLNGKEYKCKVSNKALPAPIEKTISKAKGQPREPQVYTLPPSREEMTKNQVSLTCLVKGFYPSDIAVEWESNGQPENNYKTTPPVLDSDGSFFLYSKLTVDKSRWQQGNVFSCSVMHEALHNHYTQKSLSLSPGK
light: DIQMTQSPSSLSASVGDRVTITCRASQDVSTAVAWYQQKPGKAPKLLIYSASFLYSGVPSRFSGSGSGTDFTLTISSLQPEDFATTYYCQQSYTGTVTFGQGTKVEIKRTVAAPSVFIFPPDIQMTQSPSSLSASVGDRVTITCRASQDVSTAVAWYQQKPGKAPKLLIYSASFLYSGVPSRFSGSGSGTDFTLTISSLQPEDFATYYCQQSYTTPPTFGQGTKVEIKRTVAAPSVFIFPPSDEQLKSGTASVVCLLNNFYPREAKVQWKVDNALQSGNSQESVTEQDSKDSTYSLSSTLTLSKADYEKHKVYACEVTHQGLSSPVTKSFNRGEC
notes: also called DVD471H/DVD471L
Regarding B10, in experiment [2], the “DVD-Ig Inhibition of sFlt1 (IC50, nM)” value was found to be 1.92 nM. Also, the IC50 in experiment [3] stood at 5.46 nM; in experiment [4], 2.66 nM; in experiment [5] it was 4.1 nM.

B11: DVD476 (VEGF (seq. 1) N-terminal / DLL4 (seq. 1) C-terminal DVD-Ig, long HC linker, short LC linker) (bispecific antibody, human IgG1, kappa)
heavy: not shown
light: DIQMTQSPSSLSASVGDRVTITCSASQDISNYLNWYQQKPGKAPKVLIYFTSSLHSGVPSRFSGSGSGTDFTLTISSLQPEDFATYYCQQYSTVPWTFGQGTKVEIKRTVAAPDIQMTQSPSSLSASVGDRVTITCRASQDVSTAVAWYQQKPGKAPKLLIYSASFLYSGVPSRFSGSGSGTDFTLTISSLQPEDFATTYYCQQSYTGTVTFGQGTKVEIKRTVAAPSVFIFPPSDEQLKSGTASVVCLLNNFYPREAKVQWKVDNALQSGNSQESVTEQDSKDSTYSLSSTLTLSKADYEKHKVYACEVTHQGLSSPVTKSFNRGEC
notes: also called DVD476H/DVD476L
Regarding B11, the “DVD-Ig Inhibition of sFlt1 (IC50, nM)” value in experiment [2] is 1.68 nM. The IC50 came out at 2.4 nM in experiment [3], 4.9 nM in experiment [4] and 15.1 nM in experiment [5].

B12: DVD476 (bispecific antibody, human IgG1, kappa)
heavy: not shown
light: B11 light
notes: DVD-Ig; also called VEGF and DLL4 DVD-Ig, HC linker long, LC linker short
Consider B12, for which a half-maximal effect in the experiment with DLL4 (EC50) was put at 11.7 nM.

B13: DVD591 (bispecific antibody, human IgG1, kappa)
heavy: not shown
light: DIVLTQSPDSLAVSLGERVTMNCKSSQSLLNSGMRKSFLAWYQQKPGQSPKLLIYWASTRESGVPDRFTGSGSGTDFTLTISSVQAEDVAVYYCKQSYHLFTFGSGTKLEIKRTVAAPDIQMTQSPSSLSASVGDRVTITCRASQVIRRSLAWYQQKPGKAPKLLIYAASNLASGVPSRFSGSGSGTDFTLTISSLQPEDFATYYCQQSNTSPLTFGQGTKVEIKRTVAAPSVFIFPPSDEQLKSGTASVVCLLNNFYPREAKVQWKVDNALQSGNSQESVTEQDSKDSTYSLSSTLTLSKADYEKHKVYACEVTHQGLSSPVTKSFNRGEC
notes: DVD-Ig, N-terminal PlGF (AB047), C-terminal VEGF (AB071); HC linker long, LC linker short; also called DVD591VH; DVD591VL
Consider B13, for which the EC50 in the experiment with PlGF is 0.13 nM; with VEGF, 1170 nM.
